From paper doi:10.1101/2024.02.08.579428

Assays:
GUN1-FL = target: T1, GUN1-FL (Arabidopsis thaliana, UniProt Q9SIC9 1-918); assay: EMSA
T1 sequence: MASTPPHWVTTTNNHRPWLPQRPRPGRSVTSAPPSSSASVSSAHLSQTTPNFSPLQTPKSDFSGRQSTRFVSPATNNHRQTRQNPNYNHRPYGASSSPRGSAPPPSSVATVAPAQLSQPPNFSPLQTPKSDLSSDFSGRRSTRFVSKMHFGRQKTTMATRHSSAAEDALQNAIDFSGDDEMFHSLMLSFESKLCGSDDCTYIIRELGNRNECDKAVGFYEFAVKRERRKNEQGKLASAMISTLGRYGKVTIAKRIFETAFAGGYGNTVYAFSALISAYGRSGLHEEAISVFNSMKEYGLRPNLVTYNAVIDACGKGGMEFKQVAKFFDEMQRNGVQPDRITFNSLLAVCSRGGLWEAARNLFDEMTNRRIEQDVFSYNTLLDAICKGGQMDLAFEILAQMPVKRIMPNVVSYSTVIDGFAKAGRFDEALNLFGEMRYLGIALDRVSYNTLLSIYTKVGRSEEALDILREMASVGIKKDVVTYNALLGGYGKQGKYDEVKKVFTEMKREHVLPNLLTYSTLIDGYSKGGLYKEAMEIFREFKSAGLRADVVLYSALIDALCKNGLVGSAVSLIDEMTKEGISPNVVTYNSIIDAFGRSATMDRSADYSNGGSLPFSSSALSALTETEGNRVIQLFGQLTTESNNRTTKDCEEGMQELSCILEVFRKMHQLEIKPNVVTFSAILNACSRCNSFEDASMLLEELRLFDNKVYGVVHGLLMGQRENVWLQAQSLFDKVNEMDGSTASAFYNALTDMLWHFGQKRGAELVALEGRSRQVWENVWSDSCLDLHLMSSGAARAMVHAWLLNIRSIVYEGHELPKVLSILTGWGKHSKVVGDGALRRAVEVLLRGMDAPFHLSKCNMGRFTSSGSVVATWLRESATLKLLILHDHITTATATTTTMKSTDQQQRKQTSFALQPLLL

GUN1-PS = target: T2, GUN1-PS (Arabidopsis thaliana, UniProt Q9SIC9 232-918); assay: EMSA
T2 sequence: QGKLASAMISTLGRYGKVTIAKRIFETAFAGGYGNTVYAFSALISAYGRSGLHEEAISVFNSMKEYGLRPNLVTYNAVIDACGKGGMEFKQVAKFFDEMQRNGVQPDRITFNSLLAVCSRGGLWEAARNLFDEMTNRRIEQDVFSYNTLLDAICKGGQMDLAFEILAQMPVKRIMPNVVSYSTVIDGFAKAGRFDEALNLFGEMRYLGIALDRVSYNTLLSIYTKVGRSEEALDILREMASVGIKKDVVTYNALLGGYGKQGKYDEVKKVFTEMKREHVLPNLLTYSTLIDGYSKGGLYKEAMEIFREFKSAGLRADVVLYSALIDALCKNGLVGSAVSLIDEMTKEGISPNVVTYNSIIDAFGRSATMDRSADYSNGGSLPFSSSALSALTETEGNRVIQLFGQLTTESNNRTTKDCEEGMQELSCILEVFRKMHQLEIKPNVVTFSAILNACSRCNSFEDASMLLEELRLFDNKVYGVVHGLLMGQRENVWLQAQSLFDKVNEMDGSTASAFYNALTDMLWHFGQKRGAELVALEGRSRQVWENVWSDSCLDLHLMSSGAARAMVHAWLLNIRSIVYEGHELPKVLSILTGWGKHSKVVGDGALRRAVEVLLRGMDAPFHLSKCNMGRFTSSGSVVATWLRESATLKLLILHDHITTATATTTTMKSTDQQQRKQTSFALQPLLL

Binder: AGAAAAAAAUCUGUUGAUAAAUGAA (ssRNA) [ndhG_118454]
- binding result (GUN1-FL): binds

Binder: AAGAGACAACCUGGCGAACUGAAAC (ssRNA) [23S_104856]
- binding result (GUN1-FL): binds
- binding result (GUN1-PS): binds
